Assay results from patent US20140087995A1 (published 2014).
Numbered stars: 1 amine (or outer) side, 2 acyl side, 3 side chain; on linkers, the order of the positions; unused ones are H or OH. Bridge positions count the residues as written; N and C are the ends. Side chains are listed from the residue outwards. Ends that are not written are not given here. * marks the point of attachment. C20 diacid = O=C(O)CCCCCCCCCCCCCCCCCCC(=O)*; γGlu = O=C(O)[C@H](CCC(=O)[*:2])N[*:1]; AEEA = NCCOCCOCC(=O)O

T1: human amylin receptor (amylin 3(a) receptor: human calcitonin receptor co-expressed with RAMP-3) (human, UniProt P30988 25-474; O60896 24-148, limits assumed)
T1 sequence (looked up) 1: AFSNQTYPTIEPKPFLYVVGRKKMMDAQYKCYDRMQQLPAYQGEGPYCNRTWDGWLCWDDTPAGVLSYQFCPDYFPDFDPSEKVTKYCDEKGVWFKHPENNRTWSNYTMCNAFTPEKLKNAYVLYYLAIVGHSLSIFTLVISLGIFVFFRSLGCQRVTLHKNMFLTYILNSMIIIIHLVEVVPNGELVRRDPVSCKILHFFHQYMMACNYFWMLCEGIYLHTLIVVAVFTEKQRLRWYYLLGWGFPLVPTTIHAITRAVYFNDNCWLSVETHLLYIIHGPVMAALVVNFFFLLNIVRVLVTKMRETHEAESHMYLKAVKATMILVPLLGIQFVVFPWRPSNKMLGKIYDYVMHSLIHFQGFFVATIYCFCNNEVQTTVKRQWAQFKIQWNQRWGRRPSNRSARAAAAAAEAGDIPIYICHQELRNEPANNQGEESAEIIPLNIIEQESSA
T1 sequence (looked up) 2: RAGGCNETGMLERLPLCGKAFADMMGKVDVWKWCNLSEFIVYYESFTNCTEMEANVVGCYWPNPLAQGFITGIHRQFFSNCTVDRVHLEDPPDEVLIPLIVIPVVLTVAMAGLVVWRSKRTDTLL

T2: human calcitonin receptor (human, UniProt P30988 25-474)
T2 sequence (looked up): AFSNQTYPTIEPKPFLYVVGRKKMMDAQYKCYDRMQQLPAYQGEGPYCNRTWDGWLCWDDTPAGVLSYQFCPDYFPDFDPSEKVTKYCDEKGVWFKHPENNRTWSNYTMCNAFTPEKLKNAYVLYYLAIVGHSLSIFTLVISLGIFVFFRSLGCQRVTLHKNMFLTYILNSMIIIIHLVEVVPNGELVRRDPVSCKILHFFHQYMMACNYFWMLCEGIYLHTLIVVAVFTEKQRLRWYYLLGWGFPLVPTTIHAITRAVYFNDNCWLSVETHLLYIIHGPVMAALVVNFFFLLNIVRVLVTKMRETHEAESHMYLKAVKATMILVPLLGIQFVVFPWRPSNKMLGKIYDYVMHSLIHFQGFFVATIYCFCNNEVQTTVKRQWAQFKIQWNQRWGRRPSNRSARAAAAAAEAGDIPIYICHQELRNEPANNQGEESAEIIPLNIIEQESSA


Columns and labels:
[1] = biological target: T1, human amylin receptor (amylin 3(a) …); assay: cell-based or functional assay
[2] = biological target: T2, human calcitonin receptor; assay: cell-based or functional assay

Row | Binder | hAmylin-R funct. EC50 [1] [nM] | Ratio hCT/hAmylin funct. (hCTR EC50 against hAmylin-R EC50) [2] | hCTR funct. EC50 [2] [nM]
1 | K([AEEA-γGlu-C20 diacid])CNTATCATQRLAAFLRHSSPNFGAIPSSTPVGSNTY-NH2 (disulfide 2-7; N-terminus assumed; SMILES CC[C@H](C)[C@H](NC(=O)[C@H](C)NC(=O)CNC(=O)[C@H](Cc1ccccc1)NC(=O)[C@H](CC(N)=O)NC(=O)[C@@H]1CCCN1C(=O)[C@H](CO)NC(=O)[C@H](CO)NC(=O)[C@H](Cc1c[nH]cn1)NC(=O)[C@H](CCCNC(=N)N)NC(=O)[C@H](CC(C)C)NC(=O)[C@H](Cc1ccccc1)NC(=O)[C@H](C)NC(=O)[C@H](C)NC(=O)[C@H](CC(C)C)NC(=O)[C@H](CCCNC(=N)N)NC(=O)[C@H](CCC(N)=O)NC(=O)[C@@H](NC(=O)[C@H](C)NC(=O)[C@@H]1CSSC[C@H](NC(=O)[C@@H](N)CCCCNC(=O)COCCOCCNC(=O)CC[C@H](NC(=O)CCCCCCCCCCCCCCCCCCC(=O)O)C(=O)O)C(=O)N[C@@H](CC(N)=O)C(=O)N[C@@H]([C@@H](C)O)C(=O)N[C@@H](C)C(=O)N[C@@H]([C@@H](C)O)C(=O)N1)[C@@H](C)O)C(=O)N1CCC[C@H]1C(=O)N[C@@H](CO)C(=O)N[C@@H](CO)C(=O)N[C@H](C(=O)N1CCC[C@H]1C(=O)N[C@H](C(=O)NCC(=O)N[C@@H](CO)C(=O)N[C@@H](CC(N)=O)C(=O)N[C@H](C(=O)N[C@@H](Cc1ccc(O)cc1)C(N)=O)[C@@H](C)O)C(C)C)[C@@H](C)O, also called compound 72) | 0.106 | 44.9 | 4.76
2 | K([AEEA-γGlu-C20 diacid])CNTATCATQRLANFLRHSSPNFGAIPSSTNVGRNTY-NH2 (disulfide 2-7; N-terminus assumed; SMILES CC[C@H](C)[C@H](NC(=O)[C@H](C)NC(=O)CNC(=O)[C@H](Cc1ccccc1)NC(=O)[C@H](CC(N)=O)NC(=O)[C@@H]1CCCN1C(=O)[C@H](CO)NC(=O)[C@H](CO)NC(=O)[C@H](Cc1c[nH]cn1)NC(=O)[C@H](CCCNC(=N)N)NC(=O)[C@H](CC(C)C)NC(=O)[C@H](Cc1ccccc1)NC(=O)[C@H](CC(N)=O)NC(=O)[C@H](C)NC(=O)[C@H](CC(C)C)NC(=O)[C@H](CCCNC(=N)N)NC(=O)[C@H](CCC(N)=O)NC(=O)[C@@H](NC(=O)[C@H](C)NC(=O)[C@@H]1CSSC[C@H](NC(=O)[C@@H](N)CCCCNC(=O)COCCOCCNC(=O)CC[C@H](NC(=O)CCCCCCCCCCCCCCCCCCC(=O)O)C(=O)O)C(=O)N[C@@H](CC(N)=O)C(=O)N[C@@H]([C@@H](C)O)C(=O)N[C@@H](C)C(=O)N[C@@H]([C@@H](C)O)C(=O)N1)[C@@H](C)O)C(=O)N1CCC[C@H]1C(=O)N[C@@H](CO)C(=O)N[C@@H](CO)C(=O)N[C@H](C(=O)N[C@@H](CC(N)=O)C(=O)N[C@H](C(=O)NCC(=O)N[C@@H](CCCNC(=N)N)C(=O)N[C@@H](CC(N)=O)C(=O)N[C@H](C(=O)N[C@@H](Cc1ccc(O)cc1)C(N)=O)[C@@H](C)O)C(C)C)[C@@H](C)O, also called compound 78) | 0.316 | 25.8 | 8.17
3 | K([AEEA-γGlu-C20 diacid])CNTATCATQRLARFLRHSSPNFGAIPSSTPVGSNTY-NH2 (disulfide 2-7; N-terminus assumed; SMILES CC[C@H](C)[C@H](NC(=O)[C@H](C)NC(=O)CNC(=O)[C@H](Cc1ccccc1)NC(=O)[C@H](CC(N)=O)NC(=O)[C@@H]1CCCN1C(=O)[C@H](CO)NC(=O)[C@H](CO)NC(=O)[C@H](Cc1c[nH]cn1)NC(=O)[C@H](CCCNC(=N)N)NC(=O)[C@H](CC(C)C)NC(=O)[C@H](Cc1ccccc1)NC(=O)[C@H](CCCNC(=N)N)NC(=O)[C@H](C)NC(=O)[C@H](CC(C)C)NC(=O)[C@H](CCCNC(=N)N)NC(=O)[C@H](CCC(N)=O)NC(=O)[C@@H](NC(=O)[C@H](C)NC(=O)[C@@H]1CSSC[C@H](NC(=O)[C@@H](N)CCCCNC(=O)COCCOCCNC(=O)CC[C@H](NC(=O)CCCCCCCCCCCCCCCCCCC(=O)O)C(=O)O)C(=O)N[C@@H](CC(N)=O)C(=O)N[C@@H]([C@@H](C)O)C(=O)N[C@@H](C)C(=O)N[C@@H]([C@@H](C)O)C(=O)N1)[C@@H](C)O)C(=O)N1CCC[C@H]1C(=O)N[C@@H](CO)C(=O)N[C@@H](CO)C(=O)N[C@H](C(=O)N1CCC[C@H]1C(=O)N[C@H](C(=O)NCC(=O)N[C@@H](CO)C(=O)N[C@@H](CC(N)=O)C(=O)N[C@H](C(=O)N[C@@H](Cc1ccc(O)cc1)C(N)=O)[C@@H](C)O)C(C)C)[C@@H](C)O, also called compound 64) | 0.378 | 60.7 | 22.9
4 | K([AEEA-γGlu-C20 diacid])CNTATCATQRLANFLRHSSPNFGAIPPSTPVGSNTY-NH2 (disulfide 2-7, also called compound 53) | 0.064 | 9.8 | 0.625
5 | K([AEEA-γGlu-C20 diacid])CNTATCATQRLANFLRHSSPNFGAIPPSTNVGPNTY-NH2 (disulfide 2-7; N-terminus assumed; SMILES CC[C@H](C)[C@H](NC(=O)[C@H](C)NC(=O)CNC(=O)[C@H](Cc1ccccc1)NC(=O)[C@H](CC(N)=O)NC(=O)[C@@H]1CCCN1C(=O)[C@H](CO)NC(=O)[C@H](CO)NC(=O)[C@H](Cc1c[nH]cn1)NC(=O)[C@H](CCCNC(=N)N)NC(=O)[C@H](CC(C)C)NC(=O)[C@H](Cc1ccccc1)NC(=O)[C@H](CC(N)=O)NC(=O)[C@H](C)NC(=O)[C@H](CC(C)C)NC(=O)[C@H](CCCNC(=N)N)NC(=O)[C@H](CCC(N)=O)NC(=O)[C@@H](NC(=O)[C@H](C)NC(=O)[C@@H]1CSSC[C@H](NC(=O)[C@@H](N)CCCCNC(=O)COCCOCCNC(=O)CC[C@H](NC(=O)CCCCCCCCCCCCCCCCCCC(=O)O)C(=O)O)C(=O)N[C@@H](CC(N)=O)C(=O)N[C@@H]([C@@H](C)O)C(=O)N[C@@H](C)C(=O)N[C@@H]([C@@H](C)O)C(=O)N1)[C@@H](C)O)C(=O)N1CCC[C@H]1C(=O)N1CCC[C@H]1C(=O)N[C@@H](CO)C(=O)N[C@H](C(=O)N[C@@H](CC(N)=O)C(=O)N[C@H](C(=O)NCC(=O)N1CCC[C@H]1C(=O)N[C@@H](CC(N)=O)C(=O)N[C@H](C(=O)N[C@@H](Cc1ccc(O)cc1)C(N)=O)[C@@H](C)O)C(C)C)[C@@H](C)O, also called compound 55) | 0.068 | 10.8 | 0.731
6 | K([AEEA-γGlu-C20 diacid])CNTATCATQRLANFLRHSSPNFGAIPSSTNVGHNTY-NH2 (disulfide 2-7; N-terminus assumed; SMILES CC[C@H](C)[C@H](NC(=O)[C@H](C)NC(=O)CNC(=O)[C@H](Cc1ccccc1)NC(=O)[C@H](CC(N)=O)NC(=O)[C@@H]1CCCN1C(=O)[C@H](CO)NC(=O)[C@H](CO)NC(=O)[C@H](Cc1c[nH]cn1)NC(=O)[C@H](CCCNC(=N)N)NC(=O)[C@H](CC(C)C)NC(=O)[C@H](Cc1ccccc1)NC(=O)[C@H](CC(N)=O)NC(=O)[C@H](C)NC(=O)[C@H](CC(C)C)NC(=O)[C@H](CCCNC(=N)N)NC(=O)[C@H](CCC(N)=O)NC(=O)[C@@H](NC(=O)[C@H](C)NC(=O)[C@@H]1CSSC[C@H](NC(=O)[C@@H](N)CCCCNC(=O)COCCOCCNC(=O)CC[C@H](NC(=O)CCCCCCCCCCCCCCCCCCC(=O)O)C(=O)O)C(=O)N[C@@H](CC(N)=O)C(=O)N[C@@H]([C@@H](C)O)C(=O)N[C@@H](C)C(=O)N[C@@H]([C@@H](C)O)C(=O)N1)[C@@H](C)O)C(=O)N1CCC[C@H]1C(=O)N[C@@H](CO)C(=O)N[C@@H](CO)C(=O)N[C@H](C(=O)N[C@@H](CC(N)=O)C(=O)N[C@H](C(=O)NCC(=O)N[C@@H](Cc1c[nH]cn1)C(=O)N[C@@H](CC(N)=O)C(=O)N[C@H](C(=O)N[C@@H](Cc1ccc(O)cc1)C(N)=O)[C@@H](C)O)C(C)C)[C@@H](C)O, also called compound 76) | 0.297 | 24.8 | 7.37
